# Assay: yeast display, Sf9 membrane polyspecificity reagent, FACS + sequencing; frameworks hold sequencing errors
# Outline: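 In a synthetic yeast display library (Saccharomyces cerevisiae BJ5465), nanobody expression was induced with galactose for 36–48 hours. FACS gates were set low and high (top ~1%) using anti-HA fluorescence for expression and streptavidin fluorescence for binding of the Sf9 membrane reagent. Each polyreactivity label is drawn from the gate of origin.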
row,Sequence,polyreactivity (PSR sort gate)
1,QVQLVESGGGLVQAGGSLRLSCAASGSIFYYYAMGWYRQAPGKERELVAANDFGGGSTYYADSVKGRFTISRDNAKNTVYLQMNSLKPEDTAVYYCAARTFKDAGSAYGSWGQGTQVTVSS,high polyreactivity
2,QVQLVESGGGLVQAGGSLRLSCAASGSIFYYYAMGWYRQAPGKERELVASITSGARTNYADSVKGRFTISRDNAKNTVYLQMNILKPEDTAVFYCAADIKWSIRRAYDYWGQGTQVTVSS,high polyreactivity
3,QVQLVESGGGLVQAGGSLRLSCAASGSIFYYYAMGWYRQAPGKERELVATITSGGTTYYADSVKGRFTISRDNAKNTVYLQMISLKPEDTAVYYCAKRVKYHLYWGQGTQVTVSS,low polyreactivity
4,QVQLVESGGGLVQAGGSLRLSCAASGSIFYYYVMGWYRQAPGKERELVAAISSGGGTNYADSVKGRFTISRDNAKNTVYLQMNSLKPEDTAVYYCANASAYGLANDYDYWGQGTQVTVSS,low polyreactivity
5,QVQLVESGGGLVQAGGSLRLSCAASGSIGTYVMGWYRQAPGKERELVAAISLSGGSTYYADSVKGRFTISRDNAKNTVYLQMNSLKPEDTAVYYCNAVKATRNTGSDYWGQGTQVTVSS,low polyreactivity
6,QVQLVESGGGLVQAGGSLRLSCAASGSIGYYAMGWYRQAPGKERELVAVISRSGTGTSYADSVKGRFTISRDNAKNTVYSQMTSLKPEDTAVYYCNAETYTYRYENDYWGQGTQVTVSS,high polyreactivity
7,QVQLVESGGGLVQAGGSLRLSCAASGSIIARYAMGWYRQAPGKERELVAANTWSATSTYYADSVKGRFTISRDNAKNTVYLQMNSLKPEDTAVYYCNAGASYFLVISQSRGDYWGQGTQVTVSS,low polyreactivity
8,QVQLVESGGGLVQAGGSLRLSCAASGSIIDINALGWYRQAPRKERDLVAAISLSAGSTYYADSVKGRFSISRDNAKNTVYLQMNSLKPEDTAVYYGAAERGGRGTLRNRYDYWGQGTQVTVSS,low polyreactivity
9,QVQLVESGGGLVQAGGSLRLSCAASGSIIGDNAMGWSRQAPGKERELVADITNGGSTNYADSVKGRFTISRDNAKNTVYLQMNSLKPEDTAVYYCNKDIVWYGNYGYWGQGTQVTVSS,low polyreactivity
10,QVQLVESGGGLVQAGGSLRLSCAASGSIIGGYVMGWYRQAPGKERELVAAITSRVGSTYYADSVKGRFTISRDNAKNTVYLQMNSLKPEDTAVYYCAVVFAKRAWSRYDYWGQGTQVTVSS,high polyreactivity
11,QVQLVESGGGLVQAGGSLRLSCAASGSIIGRYAMAWYRPAPGQVRELVAAISTGGGRTYYADSVKGRFTISRDNAKNTVYLQMNSLKAEDTAVYYCNAGPYKGWGRMDYWGQGTQVTVSS,high polyreactivity
12,QVQLVESGGGLVQAGGSLRLSCAASGSIIGRYAMGWYRQAPGKERELVAAISTGGGRTYYADSVKGRFTISRDNAKNTVYLQLNSLKPEDTAVYYCNAGPYKGWGRMDYWGQGTQVTVSS,high polyreactivity
13,QVQLVESGGGLVQAGGSLRLSCAASGSIIGTNVMGWYRQPPGKERELVPSISYRDGTTYYADSVKGRFTISRDNAKNTVYLQMNSLKPEDTAVYYFAVANYYSYYWGQGTQVTVSS,low polyreactivity
14,QVQLVESGGGLVQAGGSLRLSCAASGSIIGTYAMGWYRQAPGKERELVAAISSSSTRTYYADSVKGRFTISRDTAKNTVYLQMNSLKPEDTAVYYCAATFTAVRGKYGYWGQGTQVTVSS,high polyreactivity
15,QVQLVESGGGLVQAGGSLRLSCAASGSIIKPYAMGWYRQAPGKERDLVAAIRSSGGRTNYADSVKGRFTISRDNAKNTVYLQMNSLKPEDTAVYYCAALVRVTGTYYTKYDFWGQGNQVTVSS,high polyreactivity
16,QVQLVESGGGLVQAGGSLRLSCAASGSIIPPNAMGWYRQAPGKERELVAGISSGGSTTYADSVKGRFTISRDNAKNTVYLQMNSLKPEDTAVYYCAADVPYGASIISYDYWGQGTQVTVSS,low polyreactivity
17,QVQLVESGGGLVQAGGSLRLSCAASGSIIQQYDKGWYRQAPGKHREFVAANSSSGGSTYYADSVKGRFTISRDNAKNTVYLQMNSLKPEDTAVYYCAVDTKGYTYVDYLHGSGEFGYWGQGTQVTVSS,low polyreactivity
18,QVQLVESGGGLVQAGGSLRLSCAASGSIIQVYAMGWYRQATGKERELVASITRTGGSTYYADSVKGRFTISRDNAKNTVYLLMNSLKPEDTAVYYCAAEKRYYYYVKYWKSDYWGQGTQVTVSS,low polyreactivity
19,QVQLVESGGGLVQAGGSLRLSCAASGSIIRSYTMGWYRQAPGKERELVASISRTGGSTHYADSVKGRFTISRDNAKNTVYLQMNSLKPEDTAVYYCNADTRRNRLMDYWGQGTQVTVSS,high polyreactivity
20,QVQLVESGGGLVQAGGSLRLSCAASGSIISAYAMGWYRQAPGKVREFVASITWSGGSTYYADSVKGRFTISRDNAKNTVYLQMNSLKPEDTAVYDCAAVYVTWYNNYEYWGQGTQVTVSS,high polyreactivity
21,QVQLVESGGGLVQAGGSLRLSCAASGSIISNYVMGWYRQAPGKERELDAAITRRGGRTYYADSVKGRFTISRDNAKNTVYLQMNSLKPEDTAVYYCAAEGYVYTFWDSTDFDYWGQGTQVTVSS,high polyreactivity
22,QVQLVESGGGLVQAGGSLRLSCAASGSIISYYAMGWYRQAPGKERELVAVINSGSTNYADSVKGRFTLSRDNSKNTVYLQMHSLNPEDTAVYYCAAYSLLYLLEQYTTAPYDYWGQGTQVTVSS,low polyreactivity

row,Sequence,polyreactivity (PSR sort gate)
1,QVQLVESGGGLVQAGGSLRLSCAASGSIITPYTMGWDRQAPGKERELVAAISWSGATTHYADSVKGRFTISRDNAKNTVYLQMNSLKPEDTAVYYCAARWGLRSSRYYYWGQGTQVTVSS,high polyreactivity
2,QVQLVESGGGLVQAGGSLRLSCAASGSIITPYTMGWYRQAPGKERELVAAITGSAGSTYYADSVKGRFTISRDNAKNTVYLQMNSLKPEDTAVYYCAAAVWGVYQWYYYWGQGTQVTVSS,high polyreactivity
3,QVQLVESGGGLVQAGGSLRLSCAASGSIITWYTMGWYRQAPGKERELVAAISWSGGRTYYADSVKGRFTISRDNAKNTVYLQMNSLKPEDTAVYYCAASAYGRPPFDYWGQGTQVTVSS,high polyreactivity
4,QVQLVESGGGLVQAGGSLRLSCAASGSIIVGYAMGWYRQAPGTERELVAAISWSGGRTYYADSVKGRFTISRDNAKNSVYLQMNSLKPEDTAVYYCATVTKGSLRYNYNYWGQGTQVTVSS,high polyreactivity
5,QVQLVESGGGLVQAGGSLRLSCAASGSIIVPYAMGWYRQAPGKERELVAAISSRGGRTYYADSVKGRFTISRDNAKNTVYLQMNSLKPEDTAVYYCNKTAGSHIPRLEYWGQGTQVTVSS,low polyreactivity
6,QVQLVESGGGLVQAGGSLRLSCAASGSIIVRYAMGWYRQAPGKERELVAAITSRGGSTYYAVSVKGRFTISRDNAKNTVYLQMNSLKPEDTAVYYCAAYGDQRSTPAIDKYGGQGTQVTVSS,low polyreactivity
7,QVQLVESGGGLVQAGGSLRLSCAASGSIIVRYAMGWYRQAPGKERELVASISKRGGSTYYADSVKGRFTISRDNAKNTVYLQMNSLKPEDTAVYYCAARVVTRVRGVGYNYWGQGTQVTVSS,high polyreactivity
8,QVQLVESGGGLVQAGGSLRLSCAASGSIIVVYAMGWSRQAPGKERELVAAISWGIGSTYYADSVKGRFTISRDNAKNTVYLLMNILKPEETAVYYCAAVTDIVLYDYWGQGTQVTVSS,low polyreactivity
9,QVQLVESGGGLVQAGGSLRLSCAASGSIIWRNAMGWYRQAPGKERELVAAITWSRGSTFYADSVKGRFTISRDNAKNTVYLQMNSLKAEDTAVYYCAAYGGRRFDYWGQGTQVTVSS,low polyreactivity
10,QVQLVESGGGLVQAGGSLRLSCAASGSIIYIYAMGWYRQAPGKERELVAAISSGDRTNYADSVKGRFTISRDNAKNTVYLQMNSLKPEDTAVYYCAARGRGSAAKYNYWGQGTQVTVSS,high polyreactivity
11,QVQLVESGGGLVQAGGSLRLSCAASGSIIYYYAMGWYRQAPGKERELVAAIRGGGSTNYADSVKGRFTISRDNAKNTVYLQMNSLKPEDTAVYYCNADYRNDCGTPLWYAYNYWGQGTQVTVSS,low polyreactivity
12,QVQLVESGGGLVQAGGSLRLSCAASGSILAYYARGWYRQAPGQERELVADIRAGGGNTYYADSVKGRFTISRDNAKNTVYLQMNSLKPEDTAVYYCNADWHFWYKWESYDYDYWGQGTQVTVSS,low polyreactivity
13,QVQLVESGGGLVQAGGSLRLSCAASGSILDGNAMGWYIQAPGKERELVAAISWNGARTYYADSVKGRFTISRDNAKNTVYLQMNSLKPEDTAVFYCAARRGSGKFGKYRGVDYWGQVTQVTVSS,high polyreactivity
14,QVQLVESGGGLVQAGGSLRLSCAASGSILDGNNMGWSRQAPGKERELVAAISWRGGSTYYADSVKGRFTISRDNAKNTVYLQMNSLKPEDTAVYYCNTYHPYWGSGFDYWGQGTQVTVSS,low polyreactivity
15,QVQLVESGGGLVQAGGSLRLSCAASGSILDTNAMGWYRQAPGKERELVARIDIDGSTNYADSVKGRFTISRDNAKNTVYLQMNSLKPEDTAVYYCAADAERHAPKFTYGTYDYWGQGTQVTVSS,low polyreactivity
16,QVQLVESGGGLVQAGGSLRLSCAASGSILDYYAMGWYRQAPGKERELVAAIRVNGGSTYYADSVKGRFTISRDNAKNTVYLQMNSLKPEDTAVYFCAARFSRFRRTRSEYDYWGQGTQVTVSS,high polyreactivity
17,QVQLVESGGGLVQAGGSLRLSCAASGSILEYYAMGWYRQAPGKERELVAGISSAGNTYYADSVKGRFTISRDNAKNTVYLQMNSLKPEDTAVYYCAAVPWSGEYDYWGQGTQVTVSS,low polyreactivity
18,QVQLVESGGGLVQAGGSLRLSCAASGSILFGNAMGWYRQAPGKEMELVAAITVSGGSTYYADSVKGRFTISRDNAKNTVYLQMNSLKPEDTAVYYCAAVSLFRDSQFDYWGQGTQVTVSS,low polyreactivity
19,QVQLVESGGGLVQAGGSLRLSCAASGSILFTNAMGWYRQAPGKERELVAAISSGGSTYYADSVKGRFTISRDNAKNTVYLQMNSLKPEDTAVYYCAADQLNVGREYVEYDYWGQGTQVTVSS,low polyreactivity
20,QVQLVESGGGLVQAGGSLRLSCAASGSILFYAMVWYRQAPGKERELVAAITWRGGSTYYADSVKGRFTISRDNAKNSVYLQMNSLKPEDTAVYYCARDETGRIEGDYWGQGTQVTVSS,high polyreactivity
21,QVQLVESGGGLVQAGGSLRLSCAASGSILGGNAMGWYRKAPGKERELVAAITFSGGGTYYADSVKGRFTISRDNAKNTVYLHMNSLKPEDTAVYYCAADKDGYTYEFDYWGQGTQGTVSS,low polyreactivity

# Source: the nanobody polyreactivity screen of Harvey et al. (2022)
